Substitutions are numbered along the chain they refer to. Numbers in names are those of the source.
T1: TIGIT (human)
T1 chain: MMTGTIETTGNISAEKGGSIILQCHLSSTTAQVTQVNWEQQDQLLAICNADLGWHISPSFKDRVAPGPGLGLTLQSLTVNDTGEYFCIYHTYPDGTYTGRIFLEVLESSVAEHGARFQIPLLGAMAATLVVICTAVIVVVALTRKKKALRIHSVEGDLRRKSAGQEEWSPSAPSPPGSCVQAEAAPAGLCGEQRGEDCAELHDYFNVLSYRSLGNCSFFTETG

B1: variant CD155 IgV-Fc D8G, V9I, V11A, P18T, T26M, S52P, L79P, F91S, G92A, T107L, V115A (Fc fusion)
chain: WPPPGTGGIVAQAPTQVTGFLGDSVMLPCYLQVPNMEVTHVSQLTWARHGEPGSMAVFHQTQGPSYSESKRLEFVAARPGAELRNASLRMSALRVEDEGNYTCLFVLFPQGSRSADIWLRVLGSGGGGSEPKSSDKTHTCPPCPAPEAEGAPSVFLFPPKPKDTLMISRTPEVTCVVVDVSHEDPEVKFNWYVDGVEVHNAKTKPREEQYNSTYRVVSVLTVLHQDWLNGKEYKCKVSNKALPAPIEKTISKAKGQPREPQVYTLPPSRDELTKNQVSLTCLVKGFYPSDIAVEWESNGQPENNYKTTPPVLDSDGSFFLYSKLTVDKSRWQQGNVFSCSVMHEALHNHYTQKSLSLSPGK
B2: variant CD155 IgV-Fc V9L, P18F, T45A, S65A, S67V, R78K, L79V, F91S, T107M, S114T (Fc fusion)
chain: WPPPGTGDLVVQAPTQVFGFLGDSVTLPCYLQVPNMEVTHVSQLAWARHGESGSMAVFHQTQGPAYVESKRLEFVAAKVGAELRNASLRMSGLRVEDEGNYTCLFVMFPQGSRTVDIWLRVLGSGGGGSEPKSSDKTHTCPPCPAPEAEGAPSVFLFPPKPKDTLMISRTPEVTCVVVDVSHEDPEVKFNWYVDGVEVHNAKTKPREEQYNSTYRVVSVLTVLHQDWLNGKEYKCKVSNKALPAPIEKTISKAKGQPREPQVYTLPPSRDELTKNQVSLTCLVKGFYPSDIAVEWESNGQPENNYKTTPPVLDSDGSFFLYSKLTVDKSRWQQGNVFSCSVMHEALHNHYTQKSLSLSPGK
B3: variant CD155 IgV-Fc P18S, Q32R, Q62K, R78G, L79P, F91S, T107A, R113W (Fc fusion)
chain: WPPPGTGDVVVQAPTQVSGFLGDSVTLPCYLRVPNMEVTHVSQLTWARHGESGSMAVFHQTKGPSYSESKRLEFVAAGPGAELRNASLRMSGLRVEDEGNYTCLFVAFPQGSWSVDIWLRVLGSGGGGSEPKSSDKTHTCPPCPAPEAEGAPSVFLFPPKPKDTLMISRTPEVTCVVVDVSHEDPEVKFNWYVDGVEVHNAKTKPREEQYNSTYRVVSVLTVLHQDWLNGKEYKCKVSNKALPAPIEKTISKAKGQPREPQVYTLPPSRDELTKNQVSLTCLVKGFYPSDIAVEWESNGQPENNYKTTPPVLDSDGSFFLYSKLTVDKSRWQQGNVFSCSVMHEALHNHYTQKSLSLSPGK
B4: variant CD155 IgV-Fc V9I, P18S, S24P, H49Q, F58Y, Q60R, Q62K, L79P, F91S, T107M (Fc fusion)
chain: B3 chain with V9I, S24P, R32Q, H49Q, F58Y, Q60R, G78R, A107M, W113R
B5: variant CD155 IgV-Fc T15I, P18S, V33M, N35F, T39S, M55L, R78S, L79P, F91S, T107M (Fc fusion)
chain: B3 chain with T15I, R32Q, V33M, N35F, T39S, M55L, K62Q, G78S, A107M, W113R
B6: variant CD155 IgV-Fc P18S, Q62K, K70E, L79P, F91S, G92E, R113W (Fc fusion)
chain: B3 chain with R32Q, K70E, G78R, G92E, A107T
B7: variant CD155 IgV-Fc P18T, W46C, H49R, S65A, S67V, A76T, L79P, S87T, L104M (Fc fusion)
chain: WPPPGTGDVVVQAPTQVTGFLGDSVTLPCYLQVPNMEVTHVSQLTCARRGESGSMAVFHQTQGPAYVESKRLEFVTARPGAELRNATLRMFGLRVEDEGNYTCMFVTFPQGSRSVDIWLRVLGSGGGGSEPKSSDKTHTCPPCPAPEAEGAPSVFLFPPKPKDTLMISRTPEVTCVVVDVSHEDPEVKFNWYVDGVEVHNAKTKPREEQYNSTYRVVSVLTVLHQDWLNGKEYKCKVSNKALPAPIEKTISKAKGQPREPQVYTLPPSRDELTKNQVSLTCLVKGFYPSDIAVEWESNGQPENNYKTTPPVLDSDGSFFLYSKLTVDKSRWQQGNVFSCSVMHEALHNHYTQKSLSLSPGK
B8: variant CD155 IgV-Fc P18T, G19D, M36T, S54N, L79P, L83Q, F91S, T107M, F108Y (Fc fusion)
chain: WPPPGTGDVVVQAPTQVTDFLGDSVTLPCYLQVPNTEVTHVSQLTWARHGESGNMAVFHQTQGPSYSESKRLEFVAARPGAEQRNASLRMSGLRVEDEGNYTCLFVMYPQGSRSVDIWLRVLGSGGGGSEPKSSDKTHTCPPCPAPEAEGAPSVFLFPPKPKDTLMISRTPEVTCVVVDVSHEDPEVKFNWYVDGVEVHNAKTKPREEQYNSTYRVVSVLTVLHQDWLNGKEYKCKVSNKALPAPIEKTISKAKGQPREPQVYTLPPSRDELTKNQVSLTCLVKGFYPSDIAVEWESNGQPENNYKTTPPVLDSDGSFFLYSKLTVDKSRWQQGNVFSCSVMHEALHNHYTQKSLSLSPGK
B9: variant CD155 IgV-Fc P18S, W46R, E68D, L79P, F91S, T107M, R113G (Fc fusion)
chain: B3 chain with R32Q, W46R, K62Q, E68D, G78R, A107M, W113G
B10: variant CD155 IgV-Fc P18T, T39S, S52P, S54R, L79P, F91S, T107M (Fc fusion)
chain: B8 chain with D19G, T36M, T39S, S52P, N54R, Q83L, Y108F
B11: variant CD155 IgV-Fc P18S, H59N, V75A, L79P, A81T, F91S, L104M, T107M (Fc fusion)
chain: B3 chain with R32Q, H59N, K62Q, V75A, G78R, A81T, L104M, A107M, W113R
B12: variant CD155 IgV-Fc V9I, P18F, A47E, G50S, E68G, L79P, F91S, T107M (Fc fusion)
chain: B2 chain with L9I, A45T, A47E, G50S, A65S, V67S, E68G, K78R, V79P, T114S
B13: variant CD155 IgV-Fc P18S, P34S, E51V, L79P, F91S, G111R (Fc fusion)
chain: B3 chain with R32Q, P34S, E51V, K62Q, G78R, A107T, G111R, W113R
B14: variant CD155 IgV-Fc P18T, D23G, Q60R, S67L, L79P, F91S, T107M, V115A (Fc fusion)
chain: B8 chain with D19G, D23G, T36M, N54S, Q60R, S67L, Q83L, Y108F, V115A
B15: variant CD155 IgV-Fc P18T, M55L, T61R, L79P, F91S, V106I, T107M (Fc fusion)
chain: B8 chain with D19G, T36M, N54S, M55L, T61R, Q83L, V106I, Y108F
B16: variant CD155 IgV-Fc Q12H, P18T, L21S, G22S, V57A, Q62R, L79P, F91S, T107M (Fc fusion)
chain: B3 chain with Q12H, S18T, L21S, G22S, R32Q, V57A, K62R, G78R, A107M, W113R
B17: variant CD155 IgV-Fc V9L, P18L, M55V, S69L, L79P, A81E, F91S, T107M (Fc fusion)
chain: B2 chain with F18L, A45T, M55V, A65S, V67S, S69L, K78R, V79P, A81E, T114S
B18: variant CD155 IgV-Fc V10F, T15S, P18L, R48Q, L79P, F91S, T107M, V115M (Fc fusion)
chain: B3 chain with V10F, T15S, S18L, R32Q, R48Q, K62Q, G78R, A107M, W113R, V115M
B19: variant CD155 IgV-Fc P18F, E51V, S54G, Q60R, L79Q, E82G, S87T, M90I, F91S, G92R, T107M (Fc fusion)
chain: WPPPGTGDVVVQAPTQVFGFLGDSVTLPCYLQVPNMEVTHVSQLTWARHGVSGGMAVFHRTQGPSYSESKRLEFVAARQGAGLRNATLRISRLRVEDEGNYTCLFVMFPQGSRSVDIWLRVLGSGGGGSEPKSSDKTHTCPPCPAPEAEGAPSVFLFPPKPKDTLMISRTPEVTCVVVDVSHEDPEVKFNWYVDGVEVHNAKTKPREEQYNSTYRVVSVLTVLHQDWLNGKEYKCKVSNKALPAPIEKTISKAKGQPREPQVYTLPPSRDELTKNQVSLTCLVKGFYPSDIAVEWESNGQPENNYKTTPPVLDSDGSFFLYSKLTVDKSRWQQGNVFSCSVMHEALHNHYTQKSLSLSPGK
B20: variant CD155 IgV-Fc P18S, L21M, Y30F, N35D, R84W, F91S, T107M, D116G (Fc fusion)
chain: WPPPGTGDVVVQAPTQVSGFMGDSVTLPCFLQVPDMEVTHVSQLTWARHGESGSMAVFHQTQGPSYSESKRLEFVAARLGAELWNASLRMSGLRVEDEGNYTCLFVMFPQGSRSVGIWLRVLGSGGGGSEPKSSDKTHTCPPCPAPEAEGAPSVFLFPPKPKDTLMISRTPEVTCVVVDVSHEDPEVKFNWYVDGVEVHNAKTKPREEQYNSTYRVVSVLTVLHQDWLNGKEYKCKVSNKALPAPIEKTISKAKGQPREPQVYTLPPSRDELTKNQVSLTCLVKGFYPSDIAVEWESNGQPENNYKTTPPVLDSDGSFFLYSKLTVDKSRWQQGNVFSCSVMHEALHNHYTQKSLSLSPGK
B21: variant CD155 IgV-Fc P18S, D23G, C29R, N35D, E37G, M55I, Q62K, S65A, S67G, R78G, L79P, F91S, L104M, T107M, Q110R (Fc fusion)
chain: WPPPGTGDVVVQAPTQVSGFLGGSVTLPRYLQVPDMGVTHVSQLTWARHGESGSIAVFHQTKGPAYGESKRLEFVAAGPGAELRNASLRMSGLRVEDEGNYTCMFVMFPRGSRSVDIWLRVLGSGGGGSEPKSSDKTHTCPPCPAPEAEGAPSVFLFPPKPKDTLMISRTPEVTCVVVDVSHEDPEVKFNWYVDGVEVHNAKTKPREEQYNSTYRVVSVLTVLHQDWLNGKEYKCKVSNKALPAPIEKTISKAKGQPREPQVYTLPPSRDELTKNQVSLTCLVKGFYPSDIAVEWESNGQPENNYKTTPPVLDSDGSFFLYSKLTVDKSRWQQGNVFSCSVMHEALHNHYTQKSLSLSPGK

Target: T1, TIGIT
Assay: cell-based or functional assay

Row | IL-2 luciferase reporter, Normalized Fold Change from CD155-ECD [fold] | Binder
1 | 8.4 | B1
2 | 6 | B2
3 | -2.2 | B3
4 | 1.1 | B4
5 | 1.3 | B5
6 | 2 | B6
7 | -3.4 | B7
8 | 0.3 | B8
9 | 0.9 | B9
10 | -0.1 | B10
11 | 3.5 | B11
12 | 3 | B12
13 | 2.1 | B13
14 | 8.6 | B14
15 | 4.5 | B15
16 | -4.1 | B16
17 | 3.1 | B17
18 | -3.4 | B18
19 | 5.8 | B19
20 | -2.2 | B20
21 | 1.2 | B21
